The target in the assay is T1, GFLV-derived virus-like particles (VLP) in which enhanced GFP is encaged (Grapevine fanleaf virus, isolate not …).
T1 chain: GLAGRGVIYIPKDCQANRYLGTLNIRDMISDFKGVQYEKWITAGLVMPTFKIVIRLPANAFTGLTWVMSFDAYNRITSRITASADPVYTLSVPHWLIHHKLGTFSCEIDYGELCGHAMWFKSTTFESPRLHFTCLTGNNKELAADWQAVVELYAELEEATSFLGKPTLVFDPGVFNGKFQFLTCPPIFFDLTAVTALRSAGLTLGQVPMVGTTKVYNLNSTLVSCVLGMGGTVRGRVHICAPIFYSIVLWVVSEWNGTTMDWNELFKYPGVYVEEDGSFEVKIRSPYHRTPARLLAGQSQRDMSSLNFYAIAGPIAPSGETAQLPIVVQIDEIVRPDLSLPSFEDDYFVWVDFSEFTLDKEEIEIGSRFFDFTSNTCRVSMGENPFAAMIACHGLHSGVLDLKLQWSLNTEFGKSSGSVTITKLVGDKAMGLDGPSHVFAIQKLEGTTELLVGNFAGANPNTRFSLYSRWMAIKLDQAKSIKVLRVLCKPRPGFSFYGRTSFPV
The assay can be described thus: MST.

B1: Nanobody Nb23 specific to GFLV (VHH)
VHH: QVQLQESGGGSVQVGGSLRVACAASGDTFSGYLAAWFRQAPGKGREGVAAINSKRHTTSYADSVKGRFTISKDNADNIMYLEMNSLKPEDTAIYYCAAADAIGLAEYWSTPTLSAARYKYWGQGTQVTVSS
One may read the Kd as the constant that tells how readily two partners part at equilibrium. Take B1: the Kd worked out at 9.13 nM.
